Results from paper PMC4941522.

How the values were obtained:
[1] = test system: Sso10a2 (Sulfolobus solfataricus); experiment: EMSA; details: TPM buffer conditions; data not shown; EMSA: TPM buffer II (composition not in the material), 69 nM DNA, 10 min, ~23 °C, 1% agarose 0.5x TBE; TPM: 100 mM or 20 mM NaCl
[2] = test system: Sso10a1 (Sulfolobus solfataricus); experiment: EMSA; details: TPM buffer conditions; data not shown; EMSA: TPM buffer II (composition not in the material), 69 nM DNA, 10 min, ~23 °C, 1% agarose 0.5x TBE; TPM: 100 mM or 20 mM NaCl

685 bp DNA substrate (TPM/EMSA)
Kd [1]: 1 nM | Kd [2]: 1 nM
